The target in the series is CarD WT;MTB RNAP (WT) (Mycobacterium …, UniProt P9WJG3;P9WGZ1;P9WGY9;P9WGY7;P9WGY5 1-162;1-347;1-1178;1-1316;1-110, |). As to the kind of experiment: competition (fluorescence polarization). The following applies: protein: recombinant;recombinant; tags: ;; copies: 1;2;1;1;1; blunt.

B1: rrnAP3 native 61 bp (dsDNA)
DNA 1: GATGACCGAACCTGGTCTTGACTCCATTGCCGGATTTGTATTAGACTGGCAGGGTTGCCCC
DNA 2: GGGGCAACCCTGCCAGTCTAATACAAATCCGGCAATGGAGTCAAGACCAGGTTCGGTCATC
As for B1, the Ki came to 8 ± 1 nM.
